{"source": "paper PMC4661386", "about": "(2015)", "key": {"[1]": {"target": "T1, CUB_C (CUB module and C-terminal peptide from human TSG-6), wild type (human, UniProt P98066 128-277)", "T1 chain": "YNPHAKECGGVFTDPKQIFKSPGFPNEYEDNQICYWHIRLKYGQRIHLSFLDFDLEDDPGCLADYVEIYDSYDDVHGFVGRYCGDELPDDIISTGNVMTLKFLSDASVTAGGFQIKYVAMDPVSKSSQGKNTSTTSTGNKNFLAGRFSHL", "assay": "SPR"}, "[2]": {"target": "T2, Full-length human TSG-6 (rhTSG-6), wild type (human, UniProt P98066 18-277)", "assay": "SPR; + 10 mM EDTA"}, "[3]": {"target": "T2, Full-length human TSG-6 (rhTSG-6), wild …", "assay": "SPR; + 10 mM EDTA", "remark": "listed apart in the source"}}}
{"binder": "Recombinant human heavy chain 1 (rHC1) of inter-alpha-inhibitor, wild type (natural protein) SKSSEKRQAVDTAVDGVFIRSLKVNCKVTSRFAHYVVTSQVVNTANEAREVAFDLEIPKTAFISDFAVTADGNAFIGDIKDKVTAWKQYRKAAISGENAGLVRASGRTMEQFTIHLTVNPQSKVTFQLTYEEVLKRNHMQYEIVIKVKPKQLVHHFEIDVDIFEPQGISKLDAQASFLPKELAAQTIKKSFSGKKGHVLFRPTVSQQQSCPTCSTSLLNGHFKVTYDVSRDKICDLLVANNHFAHFFAPQNLTNMNKNVVFVIDISGSMRGQKVKQTKEALLKILGDMQPGDYFDLVLFGTRVQSWKGSLVQASEANLQAAQDFVRGFSLDEATNLNGGLLRGIEILNQVQESLPELSNHASILIMLTDGDPTEGVTDRSQILKNVRNAIRGRFPLYNLGFGHNVDFNFLEVMSMENNGRAQRIYEDHDATQQLQGFYSQVAKPLLVDVDLQYPQDAVLALTQNHHKQYYEGSEIVVAGRIADNKQSSFKADVQAHGEGQEFSITCLVDEEEMKKLLRERGHMLENHVERLWAYLTIQELLAKRMKVDREERANLSSQALQMSLDYGFVTPLTSMSIRGMADQDGLKPTIDKPSEDSPPLEMLGPRRTFVLSALQPSPTHSSSNTQRLPDRVTGVDTD", "values": [{"measurement": "koff", "setting": "[1]", "value": 0.0004, "unit": "s⁻¹"}, {"measurement": "Kd", "setting": "[2]", "value": 5.1, "unit": "nM"}, {"measurement": "koff", "setting": "[3]", "value": 0.0051, "unit": "s⁻¹"}]}
